Data reported in US20130315910A1 (Xencor, published 2013).
Numbering of substitutions follows the chain as printed. In names and notes the source's numbering stands.

T1: mFcγRIIb (Mus musculus, UniProt P08101)
T1 construct: extracellular region, C-terminal His- and GST-tag; also called mouse FcγRII
T1 sequence (receptor extracellular region, looked up): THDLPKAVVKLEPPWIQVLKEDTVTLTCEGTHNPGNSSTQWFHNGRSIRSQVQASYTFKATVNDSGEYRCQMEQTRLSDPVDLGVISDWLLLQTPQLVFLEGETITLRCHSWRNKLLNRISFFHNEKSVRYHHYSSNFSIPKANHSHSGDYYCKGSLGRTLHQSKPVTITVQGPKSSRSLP

T2: cynoFcγRIIb (Macaca fascicularis, UniProt A0A140HDP4)
T2 construct: extracellular region, C-terminal His- and GST-tag; also called cynomolgus monkey FcγRIIb
T2 sequence (receptor extracellular region): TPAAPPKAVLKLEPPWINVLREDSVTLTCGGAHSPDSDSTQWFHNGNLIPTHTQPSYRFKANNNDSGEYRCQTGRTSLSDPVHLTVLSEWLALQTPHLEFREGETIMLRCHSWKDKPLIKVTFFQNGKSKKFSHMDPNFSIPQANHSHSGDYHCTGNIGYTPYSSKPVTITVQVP

T3: mFcγRIV
T3 construct: also called mouse FcγRIV; not shown: C-terminal His and GST tags (named only on our card)
T3 chain: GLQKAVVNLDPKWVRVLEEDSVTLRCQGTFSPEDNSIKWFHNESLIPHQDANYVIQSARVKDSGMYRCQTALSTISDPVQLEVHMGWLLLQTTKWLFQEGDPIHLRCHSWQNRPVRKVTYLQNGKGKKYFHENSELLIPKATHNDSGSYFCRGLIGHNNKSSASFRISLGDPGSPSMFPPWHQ

T4: human FcγRIIa (131H), His- and GST-tagged (human, UniProt P12318 34-217)
T4 construct: also called H131 FcγRIIa; HIIa; not shown: 6xHis and GST tags of the pTT5 vector
T4 sequence (looked up): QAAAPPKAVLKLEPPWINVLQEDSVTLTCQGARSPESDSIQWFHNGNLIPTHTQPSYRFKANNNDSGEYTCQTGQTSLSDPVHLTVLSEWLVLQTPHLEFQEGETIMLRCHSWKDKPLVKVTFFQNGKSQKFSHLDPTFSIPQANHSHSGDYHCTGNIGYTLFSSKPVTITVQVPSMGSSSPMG

T5: human FcγRIIb receptor protein (R&D Systems) (human, UniProt P31994 46-217)
T5 construct: Bought protein injected over captured antibody in Biacore; also called CD32b
T5 sequence (looked up): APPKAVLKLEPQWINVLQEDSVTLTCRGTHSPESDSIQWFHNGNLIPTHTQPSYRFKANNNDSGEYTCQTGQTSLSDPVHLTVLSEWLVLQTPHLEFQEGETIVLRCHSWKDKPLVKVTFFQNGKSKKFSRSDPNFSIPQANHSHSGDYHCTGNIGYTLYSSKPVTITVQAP

T6: human FcγRIIa (131R), His- and GST-tagged (human, UniProt P12318 34-217)
T6 construct: Expressed in HEK293T cells, purified by nickel chromatography; also called R131 FcγRIIa; not shown: 6xHis and GST tags of the pTT5 vector
T6 sequence (looked up): T4 sequence (looked up) with H134R

B1: A327D (antibody, human IgG1, kappa)
heavy: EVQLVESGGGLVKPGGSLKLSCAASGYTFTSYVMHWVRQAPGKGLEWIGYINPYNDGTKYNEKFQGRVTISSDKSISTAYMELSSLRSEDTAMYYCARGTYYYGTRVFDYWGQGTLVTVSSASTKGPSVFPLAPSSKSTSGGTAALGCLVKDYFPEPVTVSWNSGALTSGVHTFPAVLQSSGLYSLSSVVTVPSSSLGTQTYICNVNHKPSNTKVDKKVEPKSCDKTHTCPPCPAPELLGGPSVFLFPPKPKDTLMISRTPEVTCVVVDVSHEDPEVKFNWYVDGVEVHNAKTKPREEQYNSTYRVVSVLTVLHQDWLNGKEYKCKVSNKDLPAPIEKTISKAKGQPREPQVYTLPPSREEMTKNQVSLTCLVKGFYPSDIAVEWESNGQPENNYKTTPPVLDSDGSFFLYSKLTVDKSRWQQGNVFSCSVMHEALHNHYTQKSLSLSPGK
light: DIVMTQSPATLSLSPGERATLSCRSSKSLQNVNGNTYLYWFQQKPGQSPQLLIYRMSNLNSGVPDRFSGSGSGTEFTLTISSLEPEDFAVYYCMQHLEYPITFGAGTKLEIKRTVAAPSVFIFPPSDEQLKSGTASVVCLLNNFYPREAKVQWKVDNALQSGNSQESVTEQDSKDSTYSLSSTLTLSKADYEKHKVYACEVTHQGLSSPVTKSFNRGEC
notes: HuAM4G7 anti-CD19 IgG1 (m1) with this Fc substitution, EU index; copies: 2 + 2
B2: D265E (antibody, human IgG1, kappa)
heavy: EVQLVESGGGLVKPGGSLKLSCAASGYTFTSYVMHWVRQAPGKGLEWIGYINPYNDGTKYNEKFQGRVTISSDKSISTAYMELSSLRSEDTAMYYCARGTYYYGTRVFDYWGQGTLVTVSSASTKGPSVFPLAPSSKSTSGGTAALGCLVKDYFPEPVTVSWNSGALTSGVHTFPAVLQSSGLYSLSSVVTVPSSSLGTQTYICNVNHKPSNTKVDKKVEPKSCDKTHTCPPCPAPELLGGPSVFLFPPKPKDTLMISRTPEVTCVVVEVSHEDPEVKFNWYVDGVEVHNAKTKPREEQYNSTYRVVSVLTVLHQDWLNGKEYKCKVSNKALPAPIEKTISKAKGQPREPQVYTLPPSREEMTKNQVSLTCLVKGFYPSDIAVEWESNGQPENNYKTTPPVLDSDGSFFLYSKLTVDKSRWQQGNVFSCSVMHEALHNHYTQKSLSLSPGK
light: B1 light
notes: as for B1
B3: S239N (antibody, human IgG1, kappa)
heavy: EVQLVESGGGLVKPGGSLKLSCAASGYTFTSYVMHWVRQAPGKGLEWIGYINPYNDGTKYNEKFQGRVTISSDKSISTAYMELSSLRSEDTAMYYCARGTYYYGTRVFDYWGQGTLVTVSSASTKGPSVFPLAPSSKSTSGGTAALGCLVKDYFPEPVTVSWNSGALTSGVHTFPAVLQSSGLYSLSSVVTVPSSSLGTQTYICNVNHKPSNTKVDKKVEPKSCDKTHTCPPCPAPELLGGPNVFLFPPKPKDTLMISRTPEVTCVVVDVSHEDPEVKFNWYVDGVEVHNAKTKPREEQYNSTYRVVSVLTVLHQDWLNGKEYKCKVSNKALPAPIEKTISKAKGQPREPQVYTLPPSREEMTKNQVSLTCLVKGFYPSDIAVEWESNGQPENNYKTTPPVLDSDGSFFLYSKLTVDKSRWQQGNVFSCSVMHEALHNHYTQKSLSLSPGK
light: B1 light
notes: as for B1
B4: L235Y (antibody, human IgG1, kappa)
heavy: not shown
light: B1 light
notes: as for B1
B5: S298Q (antibody, human IgG1, kappa)
heavy: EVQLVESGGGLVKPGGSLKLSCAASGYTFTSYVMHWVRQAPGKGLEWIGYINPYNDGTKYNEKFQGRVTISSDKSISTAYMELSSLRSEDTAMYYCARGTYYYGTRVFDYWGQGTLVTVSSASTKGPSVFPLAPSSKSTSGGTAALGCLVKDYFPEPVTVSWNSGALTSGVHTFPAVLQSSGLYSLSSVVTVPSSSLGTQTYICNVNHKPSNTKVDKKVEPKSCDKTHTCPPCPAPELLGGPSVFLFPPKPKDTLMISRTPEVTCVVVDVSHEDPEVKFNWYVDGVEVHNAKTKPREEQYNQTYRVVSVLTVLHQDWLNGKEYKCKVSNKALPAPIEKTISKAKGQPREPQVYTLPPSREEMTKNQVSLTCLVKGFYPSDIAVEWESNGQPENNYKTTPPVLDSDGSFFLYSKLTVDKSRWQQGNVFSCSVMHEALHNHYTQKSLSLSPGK
light: B1 light
notes: as for B1
B6: S267E/L328I (antibody, human IgG1, kappa)
heavy: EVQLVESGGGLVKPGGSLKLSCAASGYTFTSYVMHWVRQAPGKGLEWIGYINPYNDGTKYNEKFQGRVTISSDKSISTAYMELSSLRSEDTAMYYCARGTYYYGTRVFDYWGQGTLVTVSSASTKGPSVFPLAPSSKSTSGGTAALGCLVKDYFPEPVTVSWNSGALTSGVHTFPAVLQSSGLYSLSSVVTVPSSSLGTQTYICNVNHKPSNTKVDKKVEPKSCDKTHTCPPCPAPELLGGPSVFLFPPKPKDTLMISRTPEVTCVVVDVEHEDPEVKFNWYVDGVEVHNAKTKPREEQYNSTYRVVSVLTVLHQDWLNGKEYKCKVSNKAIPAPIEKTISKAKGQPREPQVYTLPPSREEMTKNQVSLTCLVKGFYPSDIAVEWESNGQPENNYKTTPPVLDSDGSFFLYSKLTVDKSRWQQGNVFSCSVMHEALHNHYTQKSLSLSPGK
light: B1 light
notes: HuAM4G7 anti-CD19 IgG1 (m1) with these Fc substitutions, EU index; copies: 2 + 2
B7: S239Q (antibody, human IgG1, kappa)
heavy: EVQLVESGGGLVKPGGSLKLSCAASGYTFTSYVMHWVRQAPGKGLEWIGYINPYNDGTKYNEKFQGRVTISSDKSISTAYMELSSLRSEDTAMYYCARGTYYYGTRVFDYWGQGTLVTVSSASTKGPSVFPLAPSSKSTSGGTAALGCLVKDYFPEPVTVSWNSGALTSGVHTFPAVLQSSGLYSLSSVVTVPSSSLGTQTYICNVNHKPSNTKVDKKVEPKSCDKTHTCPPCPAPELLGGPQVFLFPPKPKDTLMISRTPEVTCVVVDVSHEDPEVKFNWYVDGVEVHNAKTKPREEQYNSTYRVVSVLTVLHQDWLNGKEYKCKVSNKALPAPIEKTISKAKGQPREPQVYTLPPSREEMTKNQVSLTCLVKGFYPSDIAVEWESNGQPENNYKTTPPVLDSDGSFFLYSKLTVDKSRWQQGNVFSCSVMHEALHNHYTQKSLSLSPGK
light: B1 light
notes: as for B1
B8: V266I (antibody, human IgG1, kappa)
heavy: not shown
light: B1 light
notes: as for B1
B9: H268E (antibody, human IgG1, kappa)
heavy: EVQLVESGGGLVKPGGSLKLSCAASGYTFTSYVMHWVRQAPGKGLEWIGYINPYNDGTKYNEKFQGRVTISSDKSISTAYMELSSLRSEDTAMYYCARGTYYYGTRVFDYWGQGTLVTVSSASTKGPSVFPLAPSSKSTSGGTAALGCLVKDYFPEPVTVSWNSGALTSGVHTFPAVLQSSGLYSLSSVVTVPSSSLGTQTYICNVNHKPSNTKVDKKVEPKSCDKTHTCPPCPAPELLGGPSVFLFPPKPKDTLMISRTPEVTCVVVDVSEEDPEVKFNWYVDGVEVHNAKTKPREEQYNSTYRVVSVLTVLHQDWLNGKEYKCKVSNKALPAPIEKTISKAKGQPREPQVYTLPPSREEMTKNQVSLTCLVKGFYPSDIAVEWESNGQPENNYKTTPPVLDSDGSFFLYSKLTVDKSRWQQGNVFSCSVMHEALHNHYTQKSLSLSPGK
light: B1 light
notes: as for B1
B10: H268Q (antibody, human IgG1, kappa)
heavy: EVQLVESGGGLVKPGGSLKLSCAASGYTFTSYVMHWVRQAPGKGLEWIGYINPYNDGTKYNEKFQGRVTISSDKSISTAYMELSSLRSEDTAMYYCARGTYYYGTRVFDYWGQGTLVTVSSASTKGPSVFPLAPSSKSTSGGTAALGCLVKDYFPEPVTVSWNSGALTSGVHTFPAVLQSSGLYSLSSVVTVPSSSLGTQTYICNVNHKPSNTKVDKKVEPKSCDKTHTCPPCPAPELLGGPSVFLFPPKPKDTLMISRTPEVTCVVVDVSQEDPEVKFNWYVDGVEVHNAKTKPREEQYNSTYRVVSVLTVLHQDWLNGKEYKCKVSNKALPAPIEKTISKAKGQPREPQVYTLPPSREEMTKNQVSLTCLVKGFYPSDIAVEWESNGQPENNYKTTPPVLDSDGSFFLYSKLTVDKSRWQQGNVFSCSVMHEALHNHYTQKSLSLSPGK
light: B1 light
notes: as for B1
B11: H268N (antibody, human IgG1, kappa)
heavy: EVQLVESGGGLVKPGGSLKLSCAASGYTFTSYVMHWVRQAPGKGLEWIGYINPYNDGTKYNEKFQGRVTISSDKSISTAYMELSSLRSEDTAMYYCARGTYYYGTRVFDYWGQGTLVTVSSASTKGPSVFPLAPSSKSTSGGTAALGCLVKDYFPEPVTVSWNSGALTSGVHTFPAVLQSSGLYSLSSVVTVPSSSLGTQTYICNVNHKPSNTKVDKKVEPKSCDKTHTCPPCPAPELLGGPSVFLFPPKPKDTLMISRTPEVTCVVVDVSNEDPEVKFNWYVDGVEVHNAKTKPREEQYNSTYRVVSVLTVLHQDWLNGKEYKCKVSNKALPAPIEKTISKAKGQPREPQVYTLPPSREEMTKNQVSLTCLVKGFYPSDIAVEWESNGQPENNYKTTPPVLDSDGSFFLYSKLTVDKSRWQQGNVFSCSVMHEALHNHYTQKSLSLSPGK
light: B1 light
notes: as for B1
B12: S239E (antibody, human IgG1, kappa)
heavy: not shown
light: B1 light
notes: as for B1
B13: H268D (antibody, human IgG1, kappa)
heavy: not shown
light: B1 light
notes: as for B1

target: T1, mFcγRIIb; assay: SPR

Fold vs WT IgG1 (Kd)	Fold vs WT IgG1 (off-rate)	Binder
1.86 fold	4.1 fold	B1
	0.833 fold	B2
	0.61 fold	B3
	1.02 fold	B4
	1.41 fold	B5
	2.1 fold	B6
	1.74 fold	B7
	1.42 fold	B8
	2.44 fold	B9
	0.877 fold	B10
	1.6 fold	B11
	3.1 fold	B12
1.11 fold	2.63 fold	B13

target: T7, cynoFcγRIIIa (Macaca fascicularis, UniProt Q8SPW2); assay: SPR
T7 construct: extracellular region, C-terminal His- and GST-tag; also called cynomolgus monkey FcγRIIIa
T7 sequence (Q8SPW2 17-208): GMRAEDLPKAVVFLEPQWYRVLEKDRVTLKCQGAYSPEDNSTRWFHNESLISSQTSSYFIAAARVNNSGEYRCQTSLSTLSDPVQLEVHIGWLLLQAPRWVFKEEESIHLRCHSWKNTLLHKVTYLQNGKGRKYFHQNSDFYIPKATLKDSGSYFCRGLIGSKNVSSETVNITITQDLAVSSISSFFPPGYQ

Fold vs WT IgG1 (Kd)	Fold vs WT IgG1 (off-rate)	Binder
0.783 fold	0.515 fold	B1
	0.636 fold	B2
	1.15 fold	B3
	0.535 fold	B4
	0.271 fold	B5
	0.437 fold	B6
	0.622 fold	B7
	0.979 fold	B8
	1.51 fold	B9
	0.983 fold	B10
	0.99 fold	B11
	2.26 fold	B12
4.24 fold	1.65 fold	B13

target: T2, cynoFcγRIIb; assay: SPR

Fold vs WT IgG1 (Kd)	Fold vs WT IgG1 (off-rate)	Binder
1.16 fold	1.15 fold	B1
	0.648 fold	B2
	0.66 fold	B3
	0.92 fold	B4
	0.714 fold	B5
	0.831 fold	B6
	0.401 fold	B7
	0.826 fold	B8
	2.23 fold	B9
	0.864 fold	B10
	1.34 fold	B11
	1.25 fold	B12
1.48 fold	3.94 fold	B13

Target: T3, mFcγRIV
Assay: SPR

Fold vs WT IgG1 (Kd)	Fold vs WT IgG1 (off-rate)	Binder
0.315 fold	0.876 fold	B1
	0.526 fold	B2
	1.07 fold	B3
	0.507 fold	B4
	0.291 fold	B5
	0.588 fold	B6
	0.711 fold	B7
	1.19 fold	B8
	1.42 fold	B9
	1.08 fold	B10
	1.02 fold	B11
	1.93 fold	B12
0.47 fold	1.45 fold	B13

target: T4, human FcγRIIa (131H), His- and …; assay: SPR

Fold vs WT IgG1	Kd	Binder
0.733 fold	882 nM	B1
1.35 fold	479 nM	B4
1.43 fold	453 nM	B9
0.49 fold	1320 nM	B12
1.89 fold	342 nM	B13

target: T5, human FcγRIIb receptor protein (R&D …); assay: SPR

Fold vs WT IgG1	Kd	binding result	Binder
1.33 fold	1100 nM		B1
0.417 fold	3520 nM		B2
1.45 fold	1010 nM		B3
1.05 fold	1400 nM		B4
		no binding	B5
53.4 fold	27.5 nM		B6
0.729 fold	2010 nM		B7
		no binding	B8
2.62 fold	560 nM		B9
		no binding	B10
1.17 fold	1250 nM		B11
0.803 fold	1830 nM		B12
3.06 fold	480 nM		B13

target: T8, human FcγRIIIa (158V), His- and GST-tagged (human, UniProt P08637 17-208); assay: SPR
T8 construct: also called V158 FcγRIIIa; VIIIa; not shown: 6xHis and GST tags of the pTT5 vector
T8 sequence (P08637 17-208 F176V): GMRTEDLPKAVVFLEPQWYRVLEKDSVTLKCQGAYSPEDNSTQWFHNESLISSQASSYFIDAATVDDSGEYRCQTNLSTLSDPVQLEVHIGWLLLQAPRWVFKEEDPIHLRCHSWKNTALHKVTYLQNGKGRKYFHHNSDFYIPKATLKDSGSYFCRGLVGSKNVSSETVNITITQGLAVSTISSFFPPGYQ

Fold vs WT IgG1	Kd	Binder
0.398 fold	481 nM	B1
0.504 fold	380 nM	B4
2.19 fold	87.5 nM	B9
3.49 fold	54.8 nM	B12
3.08 fold	62.2 nM	B13

target: T9, human FcγRI receptor protein (R&D Systems) (human, UniProt P12314 16-288); assay: SPR
T9 construct: also called soluble FcγRI; solFcγRI
T9 sequence (P12314 16-288 limits assumed): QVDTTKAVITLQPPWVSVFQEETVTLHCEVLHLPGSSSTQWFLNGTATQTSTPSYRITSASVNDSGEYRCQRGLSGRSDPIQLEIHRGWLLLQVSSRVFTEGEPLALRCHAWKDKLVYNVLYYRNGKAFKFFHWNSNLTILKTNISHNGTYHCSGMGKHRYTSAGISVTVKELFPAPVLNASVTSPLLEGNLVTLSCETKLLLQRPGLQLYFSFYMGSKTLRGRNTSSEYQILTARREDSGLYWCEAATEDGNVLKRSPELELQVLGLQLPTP

Fold vs WT IgG1	Kd	Binder
2.06 fold	0.16 nM	B1
0.00232 fold	142 nM	B4
2.74 fold	0.12 nM	B9
1.65 fold	0.2 nM	B12
2.35 fold	0.14 nM	B13

target: T6, human FcγRIIa (131R), His- and …; assay: SPR

Fold vs WT IgG1	Kd	binding result	Binder
1.6 fold	536 nM		B1
0.307 fold	2790 nM		B2
0.867 fold	990 nM		B3
1.28 fold	669 nM		B4
		no binding	B5
74 fold	11.6 nM		B6
0.853 fold	1010 nM		B7
		no binding	B8
3.19 fold	269 nM		B9
1.58 fold	544 nM		B10
1.79 fold	481 nM		B11
0.688 fold	1250 nM		B12
4.19 fold	205 nM		B13
